This is an account of results in the nanobody polyreactivity screen of Harvey et al. (2022).

A short description of this series: yeast display, Sf9 membrane polyspecificity reagent, FACS + sequencing; frameworks hold sequencing errors. In short, it runs like this:
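A nanobody's polyreactivity label depends on the gate it was sorted from. Yeast display cells were stained with 10% biotinylated, detergent-solubilized Sf9 membrane reagent for 1 hour at 4 °C, enriched on streptavidin microbeads and sorted by FACS. The low and high (top ~1%) gates were set on anti-HA fluorescence for expression and streptavidin fluorescence for reagent binding.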
For “QVQLVESGGGLVQAGGSLSLSCAASGSIFAQYAMGWYRQAPGKERELVATISSVGSTNYADSVKGRFTISRANAKNTVYLQMNSLKPEDTAVYYCAADYRHDTFSNEYDYWGQGTQVTVSS”, the “polyreactivity (PSR sort gate)” value was “low polyreactivity”.
The result for “QVQLVESGGGLVQAGGSLSLSCAASGSIFASYVMGWYRPAPGKEREMVAGIDTSGGSTFYADSVKGRFTISRDNAKNTVYLQMNSLKPEDTAVYYCAADTWYRGRWEFDYWGQGTQVTVSS” reads “low polyreactivity”; that for “QVQLVESGGGLVQAGGSLSLSCAASGSIFGTNAMGWYRQAPGKERELVAAISSSGASTYYADSVKGRFTISRDNAKNSVYLQMNSLKPEDTAVYYCARGYTYQSSSFYYWGQGTQVTVSS”, “low polyreactivity”; that for “QVQLVESGGGLVQAGGSLSLSCAASGSIFYNYAMGWYRQAPGKEREFVAAISWSGDTTYYADSVKGRFTISRDNAKNTVYLQMNSLKPEDTAVYYCNADIYASEYYYWGQGTQVTVSS”, “low polyreactivity”.
The result for “QVQLVESGGGLVQAGGSLSLSCAASGSILVPYTMGWYRQAPGKERELVASISYSGGSTYADSVKGRFTISRDNAKNTVYLQMNSLKPEDTAVYYCAASLPPWYPGDDFYYWGQGTQVTVSS” reads “low polyreactivity”.
Consider “QVQLVESGGGLVQAGGSLSLSCAASGSIVAYNAMGWYRQAPGKERELVAAITDSGGSTFYADSVKGRFTISRDNAKNTVYLQMNSLKPEDTAVYYCATSGDRLVWGQGTQVTVSS”, for which the “polyreactivity (PSR sort gate)” value is “low polyreactivity”.
Next, “QVQLVESGGGLVQAGGSLSLSCAASGSTFGLNASGWYRQAPGKEREFVAAITSGGTYYADSVKGRFTISRDNAKYTVYLHMYSLKPEDTSVYYCAADGTWSIYGGMYYWGQGTQVTVSS”: “low polyreactivity”.
Next, “QVQLVESGGGLVQAGGSLSLSCAASGSTFKHYAMGWYRKAPGKERELVAAISSRGGSTHYADSVKGRFTISRDNAKNTVYLQMNSLKPEDTAVYYCARDTDPQSSRSSDYDYWGQGTQVTVSS”: “low polyreactivity”; “QVQLVESGGGLVQAGGSLSLSCAASGSTFKRYAMGWYRQAPGKERDLVASISSGGSTNYADSVKGRFTISRDNAKNTVNLQMNSLKPEETAVYYCAVSYRSFRYYWERYYSWGQGTQVTVSS”: “high polyreactivity”; “QVQLVESGGGLVQAGGSLSLSCAASGSTFWYYAMGLYRQAPGKERELVAAITRGGNTYYADSVKGRFTISRDNAKNTVYLQMNSLKPEDTAVYYCAAGFYLLGKYDYWGQGTQVTVSS”: “high polyreactivity”.
The result for “QVQLVESGGGLVQAGGSLSLSCAASGSTFYPYAMGWYRQAPGTERELVAAISSGGSTSYADSVKGRFTISRDNAKNTVYLQMNSLKPEDTAVYYCAAEGPEIKYYYWGQGTQVTVSL” reads “low polyreactivity”; that for “QVQLVESGGGLVQAGGSLSLSCAASGSTIVYYAMGWYRPAPRKERELVAAINYSSGSTYYADSVKGRFTISRDNSKKTVYLQMNSLKPEDRAVYYCATDLLYYQYYSEYDYWGQGTQVTVSS”, “high polyreactivity”.
As for “QVQLVESGGGLVQAGGSLSLSCAATGRTFYHYVMGWYRQAPGKERELVAAISVSGGRTYYADSVKGRFTISRDNAKNTVYLQMNSLKPEDTAVYYCNARYGHRVRKEAGLSYYWGQGTQVTVSS”, the “polyreactivity (PSR sort gate)” value is “high polyreactivity”.
On to “QVQLVESGGGLVQAGGSLSLSCAATGSTLKFNAMGWYRQAPGKERELVAAINFSGGSTYYADSVKGRFTISRDNAKNTVYLQMNSLKPEDTAVYYCAAEASYYSRSVRWRYDYYYWGQGTQVTVSS”, for which the “polyreactivity (PSR sort gate)” value is given as “high polyreactivity”.
Next, “QVQLVESGGGLVQAGGSLSLSCDASGSTFYTYAMGWSRQEPGKERELVAAITSSGGSTYYADSVKGRFTISRDNAKNTVYLLMNSLKPEDTAVYYCAARVLGGFGFWGQGTQVTVSS”: “high polyreactivity”; “QVQLVESGGGLVQAGGSLSLSWAASGFIFRLYAMGWYRQAPGKERELVSGITQRGGRTYYADSLKGRFTISRDNANNTVYLQMNSLKPEDTAVYYCAADRCEYVYWGQGTQVTVSS”: “high polyreactivity”; “QVQLVESGGGLVQAGGSLSLTCAAYGRTITRYVMGWYRQAPGKERELVAYISRGGSTNYADSVKGRFTISRDNAKNTVYLQMNSLKPEDSAVYYCAARFSWGGYYSTTYPLTHDYWGQGTQVNVSS”: “high polyreactivity”.
Next, “QVQLVESGGGLVQAGGSLSLTCDASGFILYYYAMGRYRQAPGKERELVAAIDWDGDRTYYADSVKGRFTISRDIAKNTVYLQMNSLKPEDTAVYYCAAEWPVNFDYWGQGTQVTVSS”: “low polyreactivity”; “QVQLVESGGGLVQAGGSPLLSCAASGSIFPSYDMGWYRQAPGKERELVAPLSWSGSTTYSADSVKGRFTISRDNAKNTVSLQMNSLKPEDTAVYYCAVDSNPPDWWAVIYGYWGQGTQVTVSS”: “low polyreactivity”.
Next, “QVQLVESGGGLVQAGGSPRLSCAASGFTFYLYAMGWYRQAPGKERELVAAITRVGSTYYADSVKGRFTISRDNAKNTVYLQMNSLKPEDSAVYYCATDLSQVGFDYWGQGTQVSVSS”: “high polyreactivity”.
Consider “QVQLVESGGGLVQAGGSPRLSCAASGSIFSRNTMGWYRQAPGKERELVATITSGSNTNYADSVKGRFTISRDNAKNTVYLQMNSLKPEDTAVYYWGQGTQVTVSS”, for which the “polyreactivity (PSR sort gate)” value was “low polyreactivity”.
Next, “QVQLVESGGGLVQAGGSPRLSCAASGSTFVPYDMGWYRQAPAKERELVAAISRGGSTYYADSVKGRFTISRDNAKNTFYLQMNSLKPEDTAVYYCDARARICTVDYWVQGTQVTVSS”: “high polyreactivity”.
Consider “QVQLVESGGGLVQAGGSQRLSCDSSGSTFRYYAMGWYRPAPGKQRELVAVITWNGGGTYYADSMKGRFTISRDNAKNNVYLHMNSLKPVDTAVYYCAADASLYTDEYDNWGLGTQVTVSS”, for which the “polyreactivity (PSR sort gate)” value was “low polyreactivity”.
Next, “QVQLVESGGGLVQAGGSRLSCAASGRIFPVYAMGWYIQAPGKERELVAGINSSGDNTYYADSVKGRFTISRDNAKNTVYLQMNSLKPEDTAVYYCAAYYPYYVPYGFDYCGQGTQVTVSS”: “low polyreactivity”.
Regarding “QVQLVESGGGLVQAGGSRPLSCAASGFIFDSNAMGWYRQAPGKGTDLVAAISWSGTSTFYADSVKGRFTISRDNAKNTVYLQMNSLNPEDTAVYYCAAKYGRRGFNRYGYWGQGTQVTVSS”, the “polyreactivity (PSR sort gate)” value is recorded as “high polyreactivity”.
The result for “QVQLVESGGGLVQAGGSRRLSCAAAGIIFYAYAMGWYRQAPGKEREFVARISRGGSTNYADSVKGRFTLSRDNAKNTVYLQMNSLKPEDTAVYYCAAYYAYLRYGGLYEYWGQGTQVTVSS” reads “high polyreactivity”.
The result for “QVQLVESGGGLVQAGGSRRLSCAASGFTFHYYAMGWYRQAPGKERELVAVITSGGSTTYADSVKGRFTISRDNAKNTVYLQMNSLKPEDTAVYYCATDNPFLWWFRPDQHGMGYWGQGTQVTVSS” reads “low polyreactivity”; that for “QVQLVESGGGLVQAGGSRRLSCAASGRFFSAYAMGWYRQAPGKDRELVAAITWSGANTDYADSVKGRFTISRDNANNTVYLQMNSLKPEDTAVYYCNASVGRDSAYDYWGQGTQVTVSS”, “low polyreactivity”.
The result for “QVQLVESGGGLVQAGGSRRLSCAASGRIFGWYAMGWYRQAPGKERELVAAISRGGTRTNYADSVKGRFTISRDNAKNTGYLKMNSLKPEDTAVYYCASESFYSQFDYWGQGSQVTVSS” reads “high polyreactivity”.
In the case of “QVQLVESGGGLVQAGGSRRLSCAASGRTFDFYAMGWYRQAPGKERELVAAITGADTSTYYADSVKGRFTISRDNAMNTDYLQMNSLKPEDTAVYYCASDGQWAYTVDPYVIYYRLDYWGQGTQVTVSS”, the “polyreactivity (PSR sort gate)” value was “low polyreactivity”.
The result for “QVQLVESGGGLVQAGGSRRLSCAASGRTFFYNAMGWYRQAPGKERELLAAISYSGGSTYYADSVKGRFTISRDNAKNTVYLQMNSLKPEDTAVYYCAARDKTRSVRRTGMDYWGQGTQVTVSS” reads “high polyreactivity”; that for “QVQLVESGGGLVQAGGSRRLSCAASGRTFQYYAMGCYRQATGKERELVAAINNSGGSTYYSDSVKGRFTISRDNAKNTFYLQMNSLKQEDTAVYYCAAVSYRRHFGPYNYWGQGTQVTVSS”, “low polyreactivity”; that for “QVQLVESGGGLVQAGGSRRLSCAASGRTSTYYAMGWYRQAPGKERELVAVITRGGSTYYADSVKGRFTISRDNAKNTVYLQMNSLKPEDTAVSYCNADGRVQRKYDYWGQGTQVTVSS”, “high polyreactivity”.
Regarding “QVQLVESGGGLVQAGGSRRLSCAASGSTFDFYVMGWYRQAPGKERELVAAIRWSGGSTYYADSVKGRFTISRDNAKNTVDLPMTRLKPEDTAVDYCPADGDHYGYSYYYGYGYWGQGTQVTVSS”, the “polyreactivity (PSR sort gate)” value is “high polyreactivity”.
Next, “QVQLVESGGGLVQAGGSRRLSCAASGSTFRGNAMGWYRQAPGKERELVAASTWSGDDTYYADSVKGRFTISRDNAKNTVYLQMNSLKPEDTPVSYCAADLAAFTLAVADTYDYWGQGTQVTVSS”: “low polyreactivity”.
The result for “QVQLVESGGGLVQAGGSRRLSCAASGSTFRGNARGRYRQAPGKERELVAAITWSGDDTYYADSVKGRFTISRDNAKNTVYIQMNSLKPEDTAVYYCAADVQPDTRSTPEMDYWGQGTQVTVSS” reads “low polyreactivity”.
Next, “QVQLVESGGGLVQAGGSRRLSCAGSGSTVTGYAMGWYRQAPGKDRELVAAISSRGGSTYYADSVKGRFTISRDNAKTTVYLQMNSLKPEDTAGYYCATSYKSEQYHGKPFYYWGQGTQVTVSS”: “high polyreactivity”; “QVQLVESGGGLVQAGGSRSLSCAASGRTFTLNVMGWYRQAPGKERELVAAISTSSGRTYYADSVKGRFTISRDNAKNTVYLQMNSLKPEDTAVYYCNAVAHRQAQGDWGQGTQVTVSS”: “low polyreactivity”; “QVQLVESGGGLVQAGGSVRLSCAASGRIFRYYALGWYRQAPGQEREWVAGITRGGTTNYADSVKGRFTISRDNATNTVSLQMNSLKPEDTAVYYCAADTRRGIIGYDYWGQGTQVTVSS”: “high polyreactivity”.
For the sequence “QVQLVESGGGLVQAGGSVRLSCAASGSICFYAMGWYRQAPGKERELVAAISWRGGSTYYADSVKGRFTISRDNAKNTVYLQMNSLKPEDTAVYYCAKATRRYDVYTYGYWGQGTQVTVSS”, the “polyreactivity (PSR sort gate)” value was “high polyreactivity”.
Next, “QVQLVESGGGLVQAGGTLPLSCAATGSILGYYAMGWYRHAPGKERELVAITSGDSTYYADSVKGRFTISRDNAKNTVYLQMNSLKPEDTAVYYCAADVVRGSRYNRYGYWGQGTQVTVSS”: “high polyreactivity”.
